Data as given in publication PMC9352680, “A comprehensive thermodynamic model for RNA binding by the Saccharomyces cerevisiae Pumilio protein PUF4”.
Residue numbers refer to the chain shown, from its start. Numbers in names are those of the source.

T1: PUF4 RNA-binding domain (Saccharomyces cerevisiae, UniProt P25339 537-888)
T1 sequence: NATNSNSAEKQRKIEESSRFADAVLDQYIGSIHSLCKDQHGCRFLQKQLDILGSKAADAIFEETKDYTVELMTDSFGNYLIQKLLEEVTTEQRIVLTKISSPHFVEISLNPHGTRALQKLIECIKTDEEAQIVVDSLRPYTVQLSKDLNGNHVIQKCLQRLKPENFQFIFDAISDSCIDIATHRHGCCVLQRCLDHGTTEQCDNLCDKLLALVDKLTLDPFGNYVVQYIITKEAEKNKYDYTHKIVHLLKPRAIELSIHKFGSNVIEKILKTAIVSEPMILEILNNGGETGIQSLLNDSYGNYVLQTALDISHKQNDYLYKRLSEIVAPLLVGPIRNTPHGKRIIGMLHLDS

B1: Ic_S1_P4E.1_K4.1_C4.1_H4.1_A4.1_[A6T]_F4.1_[T8A]_T4.1 (ssRNA)
RNA: UCUCUUUGUAUUUAAUCUCUU
B2: Ia_S1_P3E.1_K3.1_C3.1_H3.1_A3.1_F3.1_[A8G]_T3.1 (ssRNA)
RNA: UCUCUUUGUAUAUGUCUCUU
B3: Ia_S1_P4E.1_K4.1_C4.1_H4.1_[A4C]_A4.1_F4.1_T4.1 (ssRNA)
RNA: UCUCUUUGUCUAUUAUCUCUU
B4: Ib_S1_P4E.1_K4.1_C4.1_H4.1_A4.1_[A6G]_F4.1_[T8A]_T4.1 (ssRNA)
RNA: UCUCUUUGUAUGUAAUCUCUU
B5: Ic_S4_P4E.1_K4.1_C4.1_H4.1_A4.1_[T5A]_[A6C]_F4.1_[T8C]_[A9T]_T4.1 (ssRNA)
RNA: UUUGACAACUGAUCGUUCUUUCUUGUAACUCUUUCUUUCUCGAUCAGUUGUCUUU
B6: Ic_S4_P4E.1_K4.1_C4.1_H4.1_A4.1_[A6G]_[T7C]_F4.1_[T8G]_[A9C]_T4.1 (ssRNA)
RNA: B5 RNA with A28U, C29G, U30C, C31G, U32C
B7: Ic_S4_P4E.1_K4.1_C4.1_H4.1_A4.1_[T5A]_[A6T]_F4.1_[T8A]_[A9G]_T4.1 (ssRNA)
RNA: B5 RNA with C29U, C31A, U32G
B8: Ic_S4_P4E.1_K4.1_C4.1_H4.1_A4.1_[T5A]_[T7A]_F4.1_[T8C]_[A9T]_T4.1 (ssRNA)
RNA: B5 RNA with C29A, U30A
B9: Ic_S4_P4E.1_K4.1_C4.1_H4.1_A4.1_[T5A]_[T7C]_F4.1_[T8C]_[A9T]_T4.1 (ssRNA)
RNA: B5 RNA with C29A, U30C
B10: Ic_S4_P4E.1_K4.1_C4.1_H4.1_A4.1_[T5A]_[T7C]_F4.1_[A9T]_T4.1 (ssRNA)
RNA: B5 RNA with C29A, U30C, C31U
B11: Ic_S4_P4E.1_K4.1_C4.1_H4.1_A4.1_[T5A]_[A6T]_[T7A]_F4.1_[T8C]_[A9T]_T4.1 (ssRNA)
RNA: B5 RNA with C29U, U30A
B12: Ic_S4_P4E.1_K4.1_C4.1_H4.1_A4.1_[T5A]_[T7C]_F4.1_[T8A]_[A9T]_T4.1 (ssRNA)
RNA: B5 RNA with C29A, U30C, C31A
B13: Ic_S4_P4E.1_K4.1_C4.1_H4.1_A4.1_[A6G]_[T7C]_F4.1_[T8A]_T4.1 (ssRNA)
RNA: B5 RNA with A28U, C29G, U30C, C31A, U32A
B14: Ic_S4_P4E.1_K4.1_C4.1_H4.1_A4.1_[T5A]_[A6T]_[T7C]_F4.1_[T8C]_T4.1 (ssRNA)
RNA: B5 RNA with C29U, U30C, U32A
B15: Ic_S4_P4E.1_K4.1_C4.1_H4.1_A4.1_[A6G]_[T7G]_F4.1_[A9T]_T4.1 (ssRNA)
RNA: B5 RNA with A28U, C29G, U30G, C31U
B16: Ic_S4_P4E.1_K4.1_C4.1_H4.1_A4.1_[T5A]_[A6T]_F4.1_[T8G]_[A9C]_T4.1 (ssRNA)
RNA: B5 RNA with C29U, C31G, U32C
B17: Ic_S4_P4E.1_K4.1_C4.1_H4.1_A4.1_[T5A]_[A6T]_[T7A]_F4.1_[A9C]_T4.1 (ssRNA)
RNA: B5 RNA with C29U, U30A, C31U, U32C
B18: Ic_S4_P4E.1_K4.1_C4.1_H4.1_A4.1_[T5A]_[A6C]_F4.1_T4.1 (ssRNA)
RNA: B5 RNA with C31U, U32A
B19: Ic_S4_P4E.1_K4.1_C4.1_H4.1_A4.1_[T5A]_[A6C]_F4.1_[T8A]_[A9C]_T4.1 (ssRNA)
RNA: B5 RNA with C31A, U32C
B20: Ic_S4_P4E.1_K4.1_C4.1_H4.1_A4.1_[T5A]_[T7C]_F4.1_[T8C]_[A9G]_T4.1 (ssRNA)
RNA: B5 RNA with C29A, U30C, U32G
B21: Ic_S4_P4E.1_K4.1_C4.1_H4.1_A4.1_[A6G]_[T7C]_F4.1_[T8C]_[A9C]_T4.1 (ssRNA)
RNA: B5 RNA with A28U, C29G, U30C, U32C
B22: Ic_S4_P4E.1_K4.1_C4.1_H4.1_A4.1_[T5A]_[A6T]_F4.1_[A9C]_T4.1 (ssRNA)
RNA: B5 RNA with C29U, C31U, U32C
B23: Ic_S4_P4E.1_K4.1_C4.1_H4.1_A4.1_[T5A]_[A6C]_F4.1_[A9G]_T4.1 (ssRNA)
RNA: B5 RNA with C31U, U32G
B24: Ic_S4_P4E.1_K4.1_C4.1_H4.1_A4.1_[T5A]_[A6C]_F4.1_[T8A]_[A9G]_T4.1 (ssRNA)
RNA: B5 RNA with C31A, U32G
B25: Ic_S4_P4E.1_K4.1_C4.1_H4.1_A4.1_[T5A]_[A6T]_[T7C]_F4.1_[T8A]_[A9C]_T4.1 (ssRNA)
RNA: B5 RNA with C29U, U30C, C31A, U32C
B26: Ic_S4_P4E.1_K4.1_C4.1_H4.1_A4.1_[T5A]_[A6T]_F4.1_T4.1 (ssRNA)
RNA: B5 RNA with C29U, C31U, U32A
B27: Ic_S4_P4E.1_K4.1_C4.1_H4.1_A4.1_[A6G]_[T7G]_F4.1_[T8C]_[A9C]_T4.1 (ssRNA)
RNA: B5 RNA with A28U, C29G, U30G, U32C
B28: Ic_S4_P4E.1_K4.1_C4.1_H4.1_A4.1_[T5A]_[A6C]_F4.1_[T8A]_[A9T]_T4.1 (ssRNA)
RNA: B5 RNA with C31A
B29: Ic_S4_P4E.1_K4.1_C4.1_H4.1_A4.1_[T5A]_[A6T]_[T7A]_F4.1_[T8A]_[A9C]_T4.1 (ssRNA)
RNA: B5 RNA with C29U, U30A, C31A, U32C
B30: Ic_S4_P4E.1_K4.1_C4.1_H4.1_A4.1_[T5A]_[A6T]_[T7C]_F4.1_[T8G]_[A9G]_T4.1 (ssRNA)
RNA: B5 RNA with C29U, U30C, C31G, U32G
B31: Ic_S4_P4E.1_K4.1_C4.1_H4.1_A4.1_[T5A]_[A6T]_[T7A]_F4.1_[A9G]_T4.1 (ssRNA)
RNA: B5 RNA with C29U, U30A, C31U, U32G
B32: Ic_S4_P4E.1_K4.1_C4.1_H4.1_A4.1_[T5A]_[A6T]_F4.1_[T8A]_[A9T]_T4.1 (ssRNA)
RNA: B5 RNA with C29U, C31A
B33: Ic_S4_P4E.1_K4.1_C4.1_H4.1_A4.1_[T5A]_[T7C]_F4.1_[T8C]_[A9C]_T4.1 (ssRNA)
RNA: B5 RNA with C29A, U30C, U32C
B34: Ic_S4_P4E.1_K4.1_C4.1_H4.1_A4.1_[T5A]_[A6C]_F4.1_[T8C]_T4.1 (ssRNA)
RNA: B5 RNA with U32A
B35: Ic_S4_P4E.1_K4.1_C4.1_H4.1_A4.1_[A6G]_[T7G]_F4.1_[T8C]_[A9G]_T4.1 (ssRNA)
RNA: B5 RNA with A28U, C29G, U30G, U32G
B36: Ic_S4_P4E.1_K4.1_C4.1_H4.1_A4.1_[T5A]_[T7C]_F4.1_[T8G]_[A9T]_T4.1 (ssRNA)
RNA: B5 RNA with C29A, U30C, C31G
B37: Ic_S4_P4E.1_K4.1_C4.1_H4.1_A4.1_[T5A]_F4.1_[T8A]_[A9G]_T4.1 (ssRNA)
RNA: B5 RNA with C29A, C31A, U32G
B38: Ic_S4_P4E.1_K4.1_C4.1_H4.1_A4.1_[T5A]_[A6T]_[T7C]_F4.1_[A9G]_T4.1 (ssRNA)
RNA: B5 RNA with C29U, U30C, C31U, U32G
B39: Ic_S4_P4E.1_K4.1_C4.1_H4.1_A4.1_[T5A]_[T7A]_F4.1_T4.1 (ssRNA)
RNA: B5 RNA with C29A, U30A, C31U, U32A
B40: Ic_S4_P4E.1_K4.1_C4.1_H4.1_A4.1_[T5A]_[A6T]_[T7C]_F4.1_[A9T]_T4.1 (ssRNA)
RNA: B5 RNA with C29U, U30C, C31U
B41: Ic_S4_P4E.1_K4.1_C4.1_H4.1_A4.1_[T5A]_[A6T]_[T7A]_F4.1_[T8A]_T4.1 (ssRNA)
RNA: B5 RNA with C29U, U30A, C31A, U32A
B42: Ic_S4_P4E.1_K4.1_C4.1_H4.1_A4.1_[T5A]_[A6T]_F4.1_[T8C]_T4.1 (ssRNA)
RNA: B5 RNA with C29U, U32A
B43: Ic_S4_P4E.1_K4.1_C4.1_H4.1_A4.1_[A6G]_[T7G]_F4.1_[T8C]_[A9T]_T4.1 (ssRNA)
RNA: B5 RNA with A28U, C29G, U30G
B44: Ic_S4_P4E.1_K4.1_C4.1_H4.1_A4.1_[T5A]_[A6T]_[T7C]_F4.1_[T8A]_[A9G]_T4.1 (ssRNA)
RNA: B5 RNA with C29U, U30C, C31A, U32G
B45: Ic_S4_P4E.1_K4.1_C4.1_H4.1_A4.1_[T5A]_[A6T]_[T7G]_F4.1_[T8C]_[A9T]_T4.1 (ssRNA)
RNA: B5 RNA with C29U, U30G
B46: Ic_S4_P4E.1_K4.1_C4.1_H4.1_A4.1_[T5A]_[T7A]_F4.1_[T8A]_T4.1 (ssRNA)
RNA: B5 RNA with C29A, U30A, C31A, U32A
B47: Ic_S4_P4E.1_K4.1_C4.1_H4.1_A4.1_[T5A]_[A6T]_[T7A]_F4.1_T4.1 (ssRNA)
RNA: B5 RNA with C29U, U30A, C31U, U32A
B48: Ic_S4_P4E.1_K4.1_C4.1_H4.1_A4.1_[T5A]_[T7C]_F4.1_[A9C]_T4.1 (ssRNA)
RNA: B5 RNA with C29A, U30C, C31U, U32C
B49: Ic_S4_P4E.1_K4.1_C4.1_H4.1_A4.1_[T5A]_[A6T]_[T7G]_F4.1_[T8C]_[A9C]_T4.1 (ssRNA)
RNA: B5 RNA with C29U, U30G, U32C
B50: Ic_S4_P4E.1_K4.1_C4.1_H4.1_A4.1_[A6G]_[T7C]_F4.1_[T8A]_[A9T]_T4.1 (ssRNA)
RNA: B5 RNA with A28U, C29G, U30C, C31A
B51: Ic_S4_P4E.1_K4.1_C4.1_H4.1_A4.1_[T5A]_[A6T]_[T7A]_F4.1_[T8C]_T4.1 (ssRNA)
RNA: B5 RNA with C29U, U30A, U32A
B52: Ic_S4_P4E.1_K4.1_C4.1_H4.1_A4.1_[A6G]_[T7C]_F4.1_[T8C]_T4.1 (ssRNA)
RNA: B5 RNA with A28U, C29G, U30C, U32A
B53: Ic_S4_P4E.1_K4.1_C4.1_H4.1_A4.1_[A6G]_[T7C]_F4.1_[T8G]_[A9T]_T4.1 (ssRNA)
RNA: B5 RNA with A28U, C29G, U30C, C31G
B54: Ic_S4_P4E.1_K4.1_C4.1_H4.1_A4.1_[T5A]_[T7A]_F4.1_[A9T]_T4.1 (ssRNA)
RNA: B5 RNA with C29A, U30A, C31U
B55: Ic_S4_P4E.1_K4.1_C4.1_H4.1_A4.1_[T5A]_[T7A]_F4.1_[A9G]_T4.1 (ssRNA)
RNA: B5 RNA with C29A, U30A, C31U, U32G
B56: Ib_S1_P4E.1_K4.1_C4.1_H4.1_A4.1_[T7G]_F4.1_[T8C]_T4.1 (ssRNA)
RNA: UCUCUUUGUAUAGCAUCUCUU
B57: Ic_S1_P4E.1_K4.1_C4.1_H4.1_A4.1_[T7C]_F4.1_[T8G]_T4.1 (ssRNA)
RNA: UCUCUUUGUAUACGAUCUCUU
B58: Ib_S1_P4E.1_K4.1_C4.1_H4.1_A4.1_[A6T]_F4.1_[T8C]_T4.1 (ssRNA)
RNA: UCUCUUUGUAUUUCAUCUCUU
B59: Ib_S1_P4E.1_K4.1_C4.1_H4.1_A4.1_[A6C]_F4.1_[T8A]_T4.1 (ssRNA)
RNA: UCUCUUUGUAUCUAAUCUCUU

biological target: T1, PUF4 RNA-binding domain; assay: Mg; RNA-MaP; 20 mM Na-HEPES pH 7.4, 30 mM KOAc, 0.75 mM MgCl2, 0.1% Tween-20, 5% glycerol, 0.1 mg/mL BSA, 2 mM DTT; 25 C; 0.0125-409.6 nM protein; details: tags: N-His6-TEV cleaved; C-SNAP kept, Cy3B-labelled; label: tethered on chip by stalled RNA polymerase

Binder	Kd [nM]
B1	66.5
B2	17
B3	12.7
B4	94.6
B5	72
B6	995
B7	467
B8	258
B9	175
B10	51.4
B11	116
B12	211
B13	243
B14	464
B15	292
B16	421
B17	46.2
B18	3.93
B19	287
B20	942

Binder	Kd [nM]
B21	558
B22	64.3
B23	84.8
B24	653
B25	1050
B26	2.38
B27	1940
B28	49.4
B29	314
B30	1920
B31	21.6
B32	56.2
B33	455
B34	281
B35	> 2300
B36	506
B37	78.7
B38	41.6
B39	3.34
B40	34.8

Binder	Kd [nM]
B41	144
B42	205
B43	624
B44	1080
B45	518
B46	202
B47	1.95
B48	76.1
B49	1200
B50	108
B51	555
B52	28.5
B53	261
B54	65
B55	44.5
B56	26.2
B57	42.1
B58	69.6
B59	49.3
